B1: CBL peptide 538-553 (E3 ubiquitin-protein ligase CBL), 16-mer library wild type / YES SH3 (YES1 SH3 domain, residues 90-152) (parent complex)
chain 1: TLRDLPPPPPPDRPYS
chain 2: not shown
B2: SH3BP2 peptide 408-423 (SH3 domain-binding protein 2), 16-mer library wild type / TNKS ANK (TNKS 12 ANK repeats, residues 174-649) (parent complex)
chain 1: PQLPHLQRSPPDGQSF
chain 2: TGVPAVSGALRELLEACRNGDVSRVKRLVDAANVNAKDMAGRKSSPLHFAAGFGRKDVVEHLLQMGANVHARDDGGLIPLHNACSFGHAEVVSLLLCQGADPNARDNWNYTPLHEAAIKGKIDVCIVLLQHGADPNIRNTDGKSALDLADPSAKAVLTGEYKKDELLEAARSGNEEKLMALLTPLNVNCHASDGRKSTPLHLAAGYNRVRIVQLLLQHGADVHAKDKGGLVPLHNACSYGHYEVTELLLKHGACVNAMDLWQFTPLHEAASKNRVEVCSLLLSHGADPTLVNCHGKSAVDMAPTPELRERLTYEFKGHSLLQAAREADLAKVKKTLALEIINFKQPQSHETALHCAVASLHPKRKQVTELLLRKGANVNEKNKDFMTPLHVAAERAHNDVMEVLHKHGAKMNALDTLGQTALHRAALAGHLQTCRLLLSYGSDPSIISLQGFTAAQMGNEAVQQILSESTPIRTSD

Variants of: B1
Assay: proteomic peptide phage display deep mutational scan (ProP-PD DMS): M13 P8 16-mer library selected against immobilised GST-tagged bait for four days (rounds), NGS of the eluted pools per day and pseudo-replica; bait immobilised on MaxiSorp plates (10 µg), library pre-cleared on GST, 2 h binding at 4 °C, five washes; one round per day, days 1-4; value from days 2 and 3
For chain 1 R3N, the screen value was 0.000239 average fractional NGS count over selection days 2 and 3 (reads of this peptide / all reads for the bait, averaged over …. chain 1 R3I was tested, and the screen value was 0.000159 average fractional NGS count over selection days 2 and 3 (reads of this peptide / all reads for the bait, averaged over …. For chain 1 R3S, the screen value was 0.000276 average fractional NGS count over selection days 2 and 3 (reads of this peptide / all reads for the bait, averaged over …. In the case of chain 1 R3A, the screen value is reported as 0.00047 average fractional NGS count over selection days 2 and 3 (reads of this peptide / all reads for the bait, averaged over …. In the case of chain 1 R3M, the screen value is reported as 0.000204 average fractional NGS count over selection days 2 and 3 (reads of this peptide / all reads for the bait, averaged over …. chain 1 R3F was tested, and the screen value was 0.000372 average fractional NGS count over selection days 2 and 3 (reads of this peptide / all reads for the bait, averaged over …. For chain 1 R3K, the screen value was 0.000536 average fractional NGS count over selection days 2 and 3 (reads of this peptide / all reads for the bait, averaged over …. chain 1 R3P was tested, and the screen value was 8.03e-05 average fractional NGS count over selection days 2 and 3 (reads of this peptide / all reads for the bait, averaged over …. In the case of chain 1 S16D, the screen value is reported as 0.00258 average fractional NGS count over selection days 2 and 3 (reads of this peptide / all reads for the bait, averaged over …. In the case of chain 1 S16H, the screen value is reported as 0.00402 average fractional NGS count over selection days 2 and 3 (reads of this peptide / all reads for the bait, averaged over …. With chain 1 S16Y the screen value was 0.000405 average fractional NGS count over selection days 2 and 3 (reads of this peptide / all reads for the bait, averaged over …. For chain 1 S16I, the screen value was 0.00716 average fractional NGS count over selection days 2 and 3 (reads of this peptide / all reads for the bait, averaged over …. In the case of chain 1 S16M, the screen value is reported as 0.00227 average fractional NGS count over selection days 2 and 3 (reads of this peptide / all reads for the bait, averaged over …. chain 1 S16L was tested, and the screen value was 0.000883 average fractional NGS count over selection days 2 and 3 (reads of this peptide / all reads for the bait, averaged over …. With chain 1 S16Q the screen value was 9.78e-05 average fractional NGS count over selection days 2 and 3 (reads of this peptide / all reads for the bait, averaged over …. With chain 1 S16A the screen value was 0.00886 average fractional NGS count over selection days 2 and 3 (reads of this peptide / all reads for the bait, averaged over …. In the case of chain 1 S16P, the screen value is reported as 0.00387 average fractional NGS count over selection days 2 and 3 (reads of this peptide / all reads for the bait, averaged over …. In the case of chain 1 S16K, the screen value is reported as 0.00025 average fractional NGS count over selection days 2 and 3 (reads of this peptide / all reads for the bait, averaged over …. chain 1 P6S was tested, and the screen value was 0.000101 average fractional NGS count over selection days 2 and 3 (reads of this peptide / all reads for the bait, averaged over …. chain 1 P6H was tested, and the screen value was 0.000126 average fractional NGS count over selection days 2 and 3 (reads of this peptide / all reads for the bait, averaged over …. In the case of chain 1 L5V, the screen value is reported as 6.39e-05 average fractional NGS count over selection days 2 and 3 (reads of this peptide / all reads for the bait, averaged over …. For chain 1 L5F, the screen value was 6.9e-05 average fractional NGS count over selection days 2 and 3 (reads of this peptide / all reads for the bait, averaged over …. For chain 1 L5I, the screen value was 5.25e-05 average fractional NGS count over selection days 2 and 3 (reads of this peptide / all reads for the bait, averaged over …. With chain 1 P14A the screen value was 0.000568 average fractional NGS count over selection days 2 and 3 (reads of this peptide / all reads for the bait, averaged over …. For chain 1 P14L, the screen value was 0.00213 average fractional NGS count over selection days 2 and 3 (reads of this peptide / all reads for the bait, averaged over …. For chain 1 P14S, the screen value was 0.00038 average fractional NGS count over selection days 2 and 3 (reads of this peptide / all reads for the bait, averaged over …. In the case of chain 1 P14W, the screen value is reported as 0.00023 average fractional NGS count over selection days 2 and 3 (reads of this peptide / all reads for the bait, averaged over …. In the case of chain 1 P14E, the screen value is reported as 0.000212 average fractional NGS count over selection days 2 and 3 (reads of this peptide / all reads for the bait, averaged over …. For chain 1 P14G, the screen value was 0.000593 average fractional NGS count over selection days 2 and 3 (reads of this peptide / all reads for the bait, averaged over …. In the case of chain 1 P14V, the screen value is reported as 0.0011 average fractional NGS count over selection days 2 and 3 (reads of this peptide / all reads for the bait, averaged over …. With chain 1 P14H the screen value was 0.00144 average fractional NGS count over selection days 2 and 3 (reads of this peptide / all reads for the bait, averaged over …. With chain 1 D4M the screen value was 0.0013 average fractional NGS count over selection days 2 and 3 (reads of this peptide / all reads for the bait, averaged over …. With chain 1 D4Y the screen value was 0.00195 average fractional NGS count over selection days 2 and 3 (reads of this peptide / all reads for the bait, averaged over …. For chain 1 D4F, the screen value was 5.77e-05 average fractional NGS count over selection days 2 and 3 (reads of this peptide / all reads for the bait, averaged over …. With chain 1 D4I the screen value was 0.00256 average fractional NGS count over selection days 2 and 3 (reads of this peptide / all reads for the bait, averaged over …. chain 1 D4P was tested, and the screen value was 0.00043 average fractional NGS count over selection days 2 and 3 (reads of this peptide / all reads for the bait, averaged over …. chain 1 D4T was tested, and the screen value was 0.00181 average fractional NGS count over selection days 2 and 3 (reads of this peptide / all reads for the bait, averaged over …. With chain 1 D4H the screen value was 0.000257 average fractional NGS count over selection days 2 and 3 (reads of this peptide / all reads for the bait, averaged over …. chain 1 D4A was tested, and the screen value was 0.000274 average fractional NGS count over selection days 2 and 3 (reads of this peptide / all reads for the bait, averaged over …. With chain 1 D4S the screen value was 7.92e-05 average fractional NGS count over selection days 2 and 3 (reads of this peptide / all reads for the bait, averaged over …. chain 1 D4K was tested, and the screen value was 0.000375 average fractional NGS count over selection days 2 and 3 (reads of this peptide / all reads for the bait, averaged over …. For chain 1 P11D, the screen value was 7.75e-05 average fractional NGS count over selection days 2 and 3 (reads of this peptide / all reads for the bait, averaged over …. chain 1 P11Q was tested, and the screen value was 0.000805 average fractional NGS count over selection days 2 and 3 (reads of this peptide / all reads for the bait, averaged over …. In the case of chain 1 P11Y, the screen value is reported as 0.00117 average fractional NGS count over selection days 2 and 3 (reads of this peptide / all reads for the bait, averaged over …. chain 1 P11H was tested, and the screen value was 0.000426 average fractional NGS count over selection days 2 and 3 (reads of this peptide / all reads for the bait, averaged over …. With chain 1 P11R the screen value was 0.000288 average fractional NGS count over selection days 2 and 3 (reads of this peptide / all reads for the bait, averaged over …. With chain 1 P11S the screen value was 4.62e-05 average fractional NGS count over selection days 2 and 3 (reads of this peptide / all reads for the bait, averaged over …. In the case of chain 1 P11T, the screen value is reported as 0.00257 average fractional NGS count over selection days 2 and 3 (reads of this peptide / all reads for the bait, averaged over …. With chain 1 P11N the screen value was 9.7e-05 average fractional NGS count over selection days 2 and 3 (reads of this peptide / all reads for the bait, averaged over …. With chain 1 P11W the screen value was 0.000174 average fractional NGS count over selection days 2 and 3 (reads of this peptide / all reads for the bait, averaged over …. In the case of chain 1 P11V, the screen value is reported as 0.000274 average fractional NGS count over selection days 2 and 3 (reads of this peptide / all reads for the bait, averaged over …. For chain 1 P11M, the screen value was 0.000374 average fractional NGS count over selection days 2 and 3 (reads of this peptide / all reads for the bait, averaged over …. chain 1 P11A was tested, and the screen value was 0.000414 average fractional NGS count over selection days 2 and 3 (reads of this peptide / all reads for the bait, averaged over …. With chain 1 P11L the screen value was 0.000447 average fractional NGS count over selection days 2 and 3 (reads of this peptide / all reads for the bait, averaged over …. In the case of chain 1 P11F, the screen value is reported as 0.00176 average fractional NGS count over selection days 2 and 3 (reads of this peptide / all reads for the bait, averaged over …. For chain 1 P11K, the screen value was 0.00117 average fractional NGS count over selection days 2 and 3 (reads of this peptide / all reads for the bait, averaged over …. In the case of chain 1 D12T, the screen value is reported as 0.00128 average fractional NGS count over selection days 2 and 3 (reads of this peptide / all reads for the bait, averaged over …. chain 1 D12L was tested, and the screen value was 0.00406 average fractional NGS count over selection days 2 and 3 (reads of this peptide / all reads for the bait, averaged over …. chain 1 D12H was tested, and the screen value was 0.00265 average fractional NGS count over selection days 2 and 3 (reads of this peptide / all reads for the bait, averaged over …. In the case of chain 1 D12M, the screen value is reported as 0.00124 average fractional NGS count over selection days 2 and 3 (reads of this peptide / all reads for the bait, averaged over …. With chain 1 D12V the screen value was 0.00115 average fractional NGS count over selection days 2 and 3 (reads of this peptide / all reads for the bait, averaged over …. In the case of chain 1 D12P, the screen value is reported as 0.00103 average fractional NGS count over selection days 2 and 3 (reads of this peptide / all reads for the bait, averaged over …. With chain 1 D12Q the screen value was 0.00108 average fractional NGS count over selection days 2 and 3 (reads of this peptide / all reads for the bait, averaged over …. In the case of chain 1 D12K, the screen value is reported as 0.00012 average fractional NGS count over selection days 2 and 3 (reads of this peptide / all reads for the bait, averaged over ….

Variants of: B2
Assay: as above
chain 1 PQLPQLQRSPPDGQSF [chain 1 H5Q] was tested, and the screen value was 0.00258 average fractional NGS count over selection days 2 and 3 (reads of this peptide / all reads for the bait, averaged over …. chain 1 PQLPFLQRSPPDGQSF [chain 1 H5F] was tested, and the screen value was 0.00112 average fractional NGS count over selection days 2 and 3 (reads of this peptide / all reads for the bait, averaged over …. For chain 1 PQLPHLQRSPPDGQST [chain 1 F16T], the screen value was 0.000194 average fractional NGS count over selection days 2 and 3 (reads of this peptide / all reads for the bait, averaged over …. chain 1 PQLPHLQRSEPDGQSF [chain 1 P10E] was tested, and the screen value was 0.00215 average fractional NGS count over selection days 2 and 3 (reads of this peptide / all reads for the bait, averaged over …. For chain 1 PQLPHLQRSDPDGQSF [chain 1 P10D], the screen value was 0.000749 average fractional NGS count over selection days 2 and 3 (reads of this peptide / all reads for the bait, averaged over …. chain 1 PQTPHLQRSPPDGQSF [chain 1 L3T] was tested, and the screen value was 0.000337 average fractional NGS count over selection days 2 and 3 (reads of this peptide / all reads for the bait, averaged over …. With chain 1 PQLPHLQRIPPDGQSF [chain 1 S9I] the screen value was 0.00144 average fractional NGS count over selection days 2 and 3 (reads of this peptide / all reads for the bait, averaged over …. With chain 1 PQLPHLQREPPDGQSF [chain 1 S9E] the screen value was 0.00024 average fractional NGS count over selection days 2 and 3 (reads of this peptide / all reads for the bait, averaged over …. For chain 1 PQLPHTQRSPPDGQSF [chain 1 L6T], the screen value was 0.000389 average fractional NGS count over selection days 2 and 3 (reads of this peptide / all reads for the bait, averaged over …. For chain 1 PNLPHLQRSPPDGQSF [chain 1 Q2N], the screen value was 0.000225 average fractional NGS count over selection days 2 and 3 (reads of this peptide / all reads for the bait, averaged over ….

From publication PMC12102759 (2025)
